Values joined by “and” are separate entries in the source; they are usually repeats but may differ in a detail not shown here. Equal entries are not always repeated.
B1: TEM8 on CHO TEM8-T4 cells (receptor)
chain: not shown
B2: CMG2 on CHO CMG2-C4 cells (receptor)
chain: not shown

Molecular target: PA-U7 (Bacillus anthracis, UniProt P13423 30-764)

Binder | Kd
B1 | 25 nM and 35 nM
B2 | 8 nM and 12 nM
